Source: patent US20100137155A1, “BIOSENSOR, METHOD FOR FABRICATING THE SAME, DETECTING METHOD UTILIZING THE SAME” (SHARP KABUCHIKI KAISHA, priority 2006, published 2010)

What was measured:
Cry-J1 = molecular target: T1, Cry-J1 (Cryptomeria japonica, UniProt P18632); assay: ELISA detection efficiency for Cry-J1 of peptides bonded to PEG-DG linkers on aminated plate (Examples 2-5); format: binding, Japanese cedar (Cryptomeria japonica); conditions: for reactivity with respect to Cry-J1 (SH1 compared with AL1) / inclination of the 450 nm light absorbance versus antigen Cryj1 concentration: PEG-DG chain length 11.0 Å, n=2; for reactivity with respect to Cry-J1 (SH1 compared with AL1): FIG. 10; for inclination of the 450 nm light absorbance versus antigen Cryj1 concentration: antigen Cryj1 0 to 2.0 μg/mL
T1 sequence (P18632 22-374): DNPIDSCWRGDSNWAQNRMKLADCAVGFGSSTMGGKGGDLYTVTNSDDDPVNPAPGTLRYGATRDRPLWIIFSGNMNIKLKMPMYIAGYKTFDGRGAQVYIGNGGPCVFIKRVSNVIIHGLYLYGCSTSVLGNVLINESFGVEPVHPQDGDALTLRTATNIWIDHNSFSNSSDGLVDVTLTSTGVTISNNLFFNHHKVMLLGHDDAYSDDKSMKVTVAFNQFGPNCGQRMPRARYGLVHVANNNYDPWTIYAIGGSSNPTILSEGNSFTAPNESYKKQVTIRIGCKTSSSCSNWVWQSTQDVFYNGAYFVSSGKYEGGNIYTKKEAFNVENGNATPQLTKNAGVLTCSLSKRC
Experimental: In order to examine influences that the length of the linker has on the detection sensitivity of the biosensor, the following experiment was carried out. A 5 μg/mL aqueous solution of acetyl-NH-TEYTIHWWK-COOH(SH1) serving as an artificially synthesized CRY-J1 recognition peptide was mixed with a sodium hydrogen carbonate buffer solution (pH=9) containing 45 μM poly(or mono)ethylene glycol diglycidyl ether (PEG-DG) in order to cause a solid phase reaction.
As PEG-DG (poly(or mono)ethylene glycol diglycidyl ether) serving as a linker molecule, six kinds thereof with different chain lengths were selected. Specifically, sample 1: 8.3 Å chain length, degree of polymerization n=1; sample 2: 11.0 Å chain length, degree of polymerization n=2; sample 3: 16.6 Å chain length, degree of polymerization n=4; sample 4: […] chain length, degree of polymerization n=9; sample 5: 41.4 Å chain length, degree of polymerization n=13; and sample 6: 66.2 Å chain length, degree of polymerization n=22. The PEG-DG was selected from the Denacole EX series of Nagase ChemteX Corporation.
Using an aminated 96-hole ELISA method plate (Sumilon MS-3608F, available from SUMITOMO BAKELITE Co., Ltd.) as a solid phase, the solid phase reaction was completed in 24 hours at room temperature.
Blocking One, available from Nacalai Tesque, Inc., was used for the blocking, and the reaction was carried out at room temperature and completed in 24 hours.
To each of the linker molecules with different lengths, 50 μL of each of the acetyl-NH-TEYTIHWWK-COOH diluted solutions of 0 μg/mL, 0.2 μg/mL, 0.5 μg/mL, 1.0 μg/mL, 2.0 μg/mL, and 5.0 μg/mL was dropped to cause bonding between the linker and the peptide.
Anti-cedar pollen antigen Cry-J1-HRP (Horse Radish Peroxidase) (SEIKAGAKU CORPORATION) serving as a secondary antibody was prepared by diluting it 1000-fold with a phosphoric acid buffer solution containing 0.1% Tween 20, and 100 μL of this preparation solution was added to cause a reaction for one hour at room temperature. […]
The solid phase reaction was caused by mixing a 5 μg/mL aqueous solution of acetyl-NH-KTEYTIHWWK-COOH with a sodium hydrogen carbonate buffer solution (pH=9) containing 45 μM poly(or mono)ethylene glycol diglycidyl ether (PEG-DG).
The solid phase reaction was caused by mixing a 5 μg/mL aqueous solution of acetyl-NH-TEETIWWWK-COOH with a sodium hydrogen carbonate buffer solution (pH=9) containing 45 μM polyethylene glycol diglycidyl ether (PEG-DG).
As polyethylene glycol diglycidyl ether (PEG-DG), one such that the chain length was 11.0 Å and the degree of polymerization was n=2 was used.
The reaction of the artificially synthesized peptide AM was carried out in such a manner that 50 μL of each of the antigen Cryj1 diluted solutions of 0 μg/mL, 0.2 μg/mL, 0.5 μg/mL, 1.0 μg/mL, 2.0 μg/mL, and 5.0 μg/mL was dropped to cause bonding between the linker and the peptide.
For acetyl-NH-TEYTIHWWK-COOH(SH1) serving as the artificially synthesized Cry-J1 recognition peptide, a solid phase was carried out in accordance with example 2. The poly(or mono)ethylene glycol diglycidyl ether (PEG-DG) that was used was such that the chain length was 11.0 Å and the degree of polymerization was n=2.

[1] = molecular target: T2, pollen allergen protein (Cry-J1) (Cryptomeria japonica, UniProt P18632); assay: ELISA of Cry-J1 capture by peptide immobilized on amino group-bonded plate via polyethylene diglycidyl ether (Example 1); format: binding, Japanese cedar (Cryptomeria japonica); conditions: Cry-J1 0, 1, 5, 10 ng/mL; peptide immobilized through polyethylene diglycidyl ether; FIG. 5
T2 construct: purchased SEIKAGAKU CORPORATION
T2 sequence (P18632 22-374): T1 sequence (P18632 22-374)
Experimental: The reactivity between anti-Cry-J1 antibody H chain hypervariable area peptide (acetylated TEYTIHWWK) and pollen allergen protein (Cry-J1) was studied by the ELISA method. The experiment method can be summarized as follows.
To a well of an amino group-bonded plate (MS-3608F, available from SUMITOMO BAKELITE Co., Ltd.), a 200 μL solution of 0.0095 mg/mL acetylated TEYTIHWWK and 0.018 mg/mL polyethylene diglycidyl ether was added, and the resulting product was settled for a night at 4° C.
The peptide solution was taken out, followed by addition thereto 200 μL Blocking One (available from Nacalai Tesque, Inc.), and the resulting product was subjected to blocking processing.
After the blocking processing, the blocking solution was taken out and the well was washed with PBS containing 0.05% Tween 20. As the washing, the operation of adding and taking out 200 μL PBS containing 0.05% Tween 20 (20 mM of sodium phosphate, pH 7.4, 0.15 M of NaCl) to and of the well was carried out three times. […]
To the well, 100 μL color developing solution (available from Nacalai Tesque, Inc.) was added to cause a reaction for 10 minutes at room temperature. After the 10 minutes of reaction, 100 μL stop solution was added, and a 450 nm light absorbance was measured with a plate reader (available from Bio-Rad Laboratories, Inc.).

Substance	reactivity with respect to Cry-J1 (SH1 compared with AL1) (Cry-J1)	inclination of the 450 nm light absorbance versus antigen Cryj1 concentration (Cry-J1)	further results
acetyl-NH-TEETIWWWK-COOH (Ac-TEETIWWWK-OH) [peptide in which tyrosine was changed to glutamic acid and histidine to tryptophan]	substantially the same reactivity	linear	
acetyl-NH-KTEYTIHWWK-COOH (Ac-KTEYTIHWWK-OH) [Cry-J1 recognition peptide with a lysine residue at both terminals, N terminal α-amino group acetylated]			detection efficiency with respect to Cry-J1 (inclination of 450 nm light absorbance) (Cry-J1; one linker at N terminal lysine and another at C terminal lysine, linker lengths 8.3 to 66.2 Å (n=1 to 22), FIG. 8): substantially the same irrespective of the linker length
acetyl-NH-TEYTIHWWK-COOH (Ac-TEYTIHWWK-OH) [artificially synthesized CRY-J1 recognition peptide; only α-amino group of N terminal T acetylated, lysine added to C terminal]	substantially the same reactivity	linear	reactivity between peptide and pollen allergen protein (Cry-J1), 450 nm light absorbance [1]: captured by the peptide depending on the concentration of the protein; detection efficiency with respect to Cry-J1 (inclination of 450 nm light absorbance) (Cry-J1; linker bonded at C terminal lysine, linker lengths of 15 Å or less (n=1 or 2) compared with 16.6 Å or more (n=4 or greater), FIG. 6): higher
acetyl-NH-KTEYTIHWW-COOH (Ac-KTEYTIHWW-OH) [anti-Cry-J1 antibody H chain hypervariable area peptide with N terminal lysine, α-amino group acetylated]			detection efficiency with respect to Cry-J1 (inclination of 450 nm light absorbance) (Cry-J1; linker bonded at N terminal lysine side chain, linker lengths of 20 to 60 Å (degree of polymerization n=4 to 9), FIG. 7): high
